Source: patent US20090258024A1

Target: mouse CD147 (mouse) (UniProt P18572)

migration induced by CypA (Boyden chamber chemotaxis) of mouse neutrophils, monocytes and activated CD4+ T cells: > 90%
Substance: Rat anti-mouse CD147 monoclonal antibody purified from the RL73.2 hybridoma
